Data published in the supplement of paper PMC10567573.

B1: CD207 (parent)
chain: MTVEKEAPDAHFTVDKQNISLWPR
B2: TRIB1 (parent)
chain: SYVRSRKRLREEEAARLFKQIVSA

Variants of: B1
Experiment: protein stability index of a GFP-peptide fusion (GPS, HEK-293T) (PSI 1-6); higher = more stable
Details: c terminus: a fixed tail appended
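Further: lentivirally expressed fusions sorted by FACS into six bins by GFP to DsRed ratio, PSI derived from sequencing read proportions per bin multiplied by bin number.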

Protein stability index, by site and new letter:
N18: W 2.05; Y 2.97; T 3.62; V 2.29
W22: A 4.63; R 4.1; S 4.69; L 4.42; G 4.35; F 3.91; Q 4.29; C 4.08; V 4.32; K 4.99; D 4.85; T 4.34; P 4.64; E 5.08; N 4.4; Y 3.83; H 4.21; I 4.73; M 4.19
R24: P 3.28; V 3.07; S 3.57; A 3.98; G 3.72; K 3.87; L 2.95; N 4.12; E 4.83; T 3.63; Q 3.97; H 3.69; C 3.16; I 2.9; Y 2.83; W 2.78; D 4.53; F 3.42; M 2.24
S20: L 2.48; P 3.3; R 3.3; F 3.04; T 3.43; H 3.2; N 3.07; I 2.66; D 4.04; C 3.39; G 3.29; K 3.55; V 2.71; Q 3.1; E 3.33; A 3.3; W 2.96; M 2.81; Y 2.69
I19: P 4; M 3.67; E 4.47; G 3.13; Y 3.41; D 4.22; F 4.08; R 3.99; C 3.76; K 4.35; L 3.35; H 4.29; T 3.79; S 3.45; A 4.25; N 4.39; Q 3.84; V 3.98
P23: A 3.39; M 2.84; S 2.64; C 2.69; Q 3.14; G 3; N 3.82; L 2.62; T 2.93; H 2.9; F 2.71; K 3.69; D 4.51; W 2.52; E 3.84; Y 2.62; I 2.91; R 3.43
L21: Q 3.85; N 3.43; Y 3.39; C 3.64; T 3.01; V 3.09; F 3.25; W 3.12; S 3.53; H 4.06; K 3.72; P 4.11; D 4.22; R 3.7; I 3.79; M 3.81

Variants of: B2
Experiment: as above
Details: c terminus: a fixed tail appended

Protein stability index: each site, then its substitutions
K7: H 1.58; G 2.99; E 2.5; M 2.38; F 2.12; S 2.53; Q 2.02; P 2.03; W 1.62; R 2.11; N 2.15; A 2.06; D 3.05; I 1.86; Y 1.93; T 2.52; C 2.34
E13: Y 2.14; M 2.21; L 2.54; A 1.27; Q 2.5; G 3.21; N 2.53; F 2.37; H 2.47; D 1.73; T 1.74; S 2.05; P 2.41; I 2.52; C 2.05; K 2.94; R 2.85; V 1.65
L9: T 2.24; R 2.07; Q 2.3; S 2.44; I 3.23; A 1.91; C 1.5; Y 2; H 2.24; M 3.22; V 1.75; P 1.86; W 2.56; F 1.68; D 2.47; K 2.25
Y2: K 2.14; T 2.38; G 1.83; H 2.58; M 2.91; S 1.9; A 2.5; V 2.33; N 2.83; Q 2.48; F 1.54; W 1.25; R 2.17; I 1.78
R4: P 1.77; D 2.44; T 1.8; L 2.35; V 2.28; Y 2.11; Q 2.09; N 2.76; E 2.76; F 1.22; M 2.12; W 1.29; I 1.57; S 1.87; C 1.7; H 2.56; A 1.41
E12: N 2.61; H 3.01; P 2.03; K 2.27; M 2.48; V 1.33; A 2.16; I 2.65; Q 1.98; C 1.76; L 2; Y 2.37; D 1.9; T 2.03
R6: Q 1.88; M 1.54; W 1.97; G 1.72; P 2.66; N 1.81; C 1.85; D 2.99; S 2.21; A 1.89; V 1.95; F 1.42; T 2.07; L 1.85; H 2.33; Y 2.23; K 2.63; I 2
S1: N 2.2; P 2.1; R 1.95; A 2.07; M 1.82; Q 1.58; D 1.88; V 1.65; K 2.98; Y 1.41; F 1.45; E 1.5
A14: M 1.81; G 3.38; I 2.4; L 2.03; F 2.34; E 2.85; C 2.24; D 1.59; H 2.26; K 2.64
R10: T 2.67; I 1.83; C 1.5; V 1.69; A 2.94; H 2.63; G 3.19; P 2.28; L 2.23; S 2.34; W 2.12; E 2.27; Y 1.95; N 2.54; K 3.08; M 1.35; F 2.04; D 2.28; Q 2.22
R8: M 1.58; V 2.37; C 2.05; Q 2.38; D 1.78; F 1.48; P 2.09; L 2.03; E 3.2; S 1.99; W 1.95; N 2.6; Y 1.99; K 2.49; I 2.3; A 2.3; H 1.96
V3: E 1.83; G 1.3; L 2.08; H 1.22; T 2.12; F 2.64; S 2.36; N 2.08; R 2.63; M 1.58; W 1.61; D 2.05; I 1.69; C 1.71; K 1.99; A 1.68; Y 1.98
E11: H 2.41; V 1.75; I 1.4; Q 1.9; D 2.17; A 2.05; W 2.05; T 2.44; N 2.13; M 1.66; S 2.69; P 1.85; F 3.54; Y 1.22; R 1.54; K 2.25; G 1.33
S5: Y 2.65; A 1.76; T 2.21; F 2.4; L 2.5; D 2.24; K 2.31; P 2.27; I 1.73; E 1.39; M 1.92; N 2.12; H 1.94; G 3.13; C 1.62
